Laboratory results taken from patent US6995019B2, “Fluorescent isothiocyanate (fitc) sinistrin, its production and use” (priority 2000, dated 2006).

Legend:
[1] = background statement on prior art; cited from earlier work
[2] = background statement on prior art; cited from earlier work; remark: listed apart in the source

## inulin
[1]
  solubility in water: only very slightly soluble in water
[2]
  blood pressure after injection into an experimental animal: transient reduction in blood pressure

## FITC-inulin
[1]
  solubility in water: only very slightly soluble in water
rat, 30 mg per kg at intervals of 2 days, sacrificed 4 hours after last administration
  fluorescence (presence of substance) in lung, liver and kidney sections: considerable fluorescence is observed
rat, liver, substance found mainly intracellularly
  effect of deposition in the liver: irreversible cell damage (cell death)
rat, lung, substance found in the corpuscles
  effect of deposition in the lung: leads to microstenoses and ultimately to embolism
Rats sacrificed 6 minutes after the injection, rinsed with saline solution
  fluorescence (accumulation) in liver, lung and kidneys: accumulates in the liver, lung and kidneys
[2]
  blood pressure after injection into an experimental animal: transient reduction in blood pressure
